Laboratory results taken from patent publication US8206955B2, “Production of monatin and monatin precursors” (Cargill, Incorporated, priority 2003, dated 2012).

Key:
Assay type in all cases: biochemical
[1] = aminotransferase activity using D-tryptophan as substrate; conditions: purified (P)
Experimental: Cell extracts were analyzed by SDS-PAGE, and assayed for tryptophan aminotransferase activity by following production of indole-pyruvic acid using the following protocol. […] The reactions were initiated by the addition of cell free extracts or purified enzyme and were incubated 30 minutes at 30° C. 20% TCA (200 μL) was added to stop the reaction, and the precipitated protein was removed by centrifugation. The absorbance at 327 nm was measured and compared to a standard curve of freshly prepared indole-3-pyruvate in the assay buffer. Control reactions without the substrate tryptophan or using cell-free extracts from clones transformed with pET30a alone were also performed.
(§1) Table 1 lists the specific activities measured in micrograms of indole-3-pyruvate (I3P) formed per milligram protein per minute. […] In these cases a ‘>’ precedes the specific activity number.

[2] = monatin aminotransferase assay (loss of monatin by LC/MS)
Experimental: Transamination activity. Monatin aminotransferase assays were conducted with the aspartate aminotransferase (AspC) from E. coli, the tyrosine aminotransferase (TyrB) from E. coli, the broad substrate aminotransferase (BSAT) from L. major, and the two commercially available porcine glutamate-oxaloacetate aminotransferases described in Example 1. Both oxaloacetate and alpha-ketoglutarate were tested as the amino acceptor. The assay mixture contained (in 0.5 mL) 50 mM Tris-HCl, pH 8.0, 0.05 mM PLP, 5 mM amino acceptor, 5 mM monatin, and 25 μg of aminotransferase. The assays were incubated at 30° C. for 30 minutes, and the reactions were stopped by addition of 0.5 mL isopropyl alcohol. The loss of monatin was monitored by LC/MS (Example 6). […] The relative activity with oxaloacetate was: BSAT>AspC>porcine type IIa>porcine type I=TyrB. The relative activity with alpha-ketoglutarate was: BSAT>AspC>porcine type I>porcine type IIa>TyrB.

[3] = tryptophan aminotransferase activity, production of indole-pyruvic acid; conditions: for Specific Activity: 5 mM L-tryptophan, 30 minutes at 30° C.; for tryptophan aminotransferase activity (in words): recombinant clones expressed in E. coli
Experimental: Cell extracts were analyzed by SDS-PAGE, and assayed for tryptophan aminotransferase activity by following production of indole-pyruvic acid using the following protocol. One mL reactions were carried out in 50 mM sodium tetraborate (pH 8.5), 0.5 mM EDTA, 0.5 mM sodium arsenate, 50 μM pyridoxal phosphate, 5 mM α-ketoglutarate, and 5 mM L-tryptophan. The reactions were initiated by the addition of cell free extracts or purified enzyme and were incubated 30 minutes at 30° C. 20% TCA (200 μL) was added to stop the reaction, and the precipitated protein was removed by centrifugation. The absorbance at 327 nm was measured and compared to a standard curve of freshly prepared indole-3-pyruvate in the assay buffer. Control reactions without the substrate tryptophan or using cell-free extracts from clones transformed with pET30a alone were also performed.
Due to background from the native E. coli aminotransferases in cell extracts, the recombinant fusion proteins each containing an aminotransferase protein fused to the pET30 amino terminal HIS6-Tag/S-Tag (6×HIS tag disclosed as SEQ ID NO: 90) were purified using immobilized metal affinity chromatography with His-Bind cartridges following manufacturer's protocols (Novagen, Madison, Wis.). The HIS6-Tag sequence (SEQ ID NO: 90) of the fusion proteins binds to the divalent Ni^2+ cations immobilized on IDA-based His-Bind resin. The eluent fractions were desalted on PD-10 (Amersham Biosciences, Piscataway, N.J.) columns and eluted in 50 mM Tris, pH 7.0. Purified proteins were analyzed by SDS-PAGE and assayed for aminotransferase activity.
as §1

[4] = in vitro monatin production with aldolase and aminotransferase; conditions: 30 μg/mL KHG enzyme, 50 mM Tris pH 8.3, saturating tryptophan, one hour

B1: B. subtilis D-aminotransf.: Bacillus subtilis D-alanine aminotransferase (dat) (protein, UniProt O07597 1-282, looked up)
D-alanine aminotransferase: MKVLVNGRLIGRSEASIDLEDRGYQFGDGIYEVIRVYKGVLFGLREHAERFFRSAAEIGISLPFSIEDLEWDLQKLVQENAVSEGAVYIQTTRGVAPRKHQYEAGLEPQTTAYTFTVKKPEQEQAYGVAAITDEDLRWLRCDIKSLNLLYNVMTKQRAYEAGAFEAILLRDGVVTEGTSSNVYAVINGTVRTHPANRLILNGITRMNILGLIEKNGIKLDETPVSEEELKQAEEIFISSTTAEIIPVVTLDGQSIGSGKPGPVTKQLQAAFQESIQQAASIS
Specific Activity [1]: 2.7 μg I3P/mg protein/min

B2: L. major bsat: Leishmania major broad substrate aminotransferase (bsat, SEQ ID NOS: 7 and 8) (protein)
chain: MSMQAAMTTAERWQKIQAQAPDVIFDLAKRAAAAKGPKANLVIGAYRDEQGRPYPLRVVRKAEQLLLDMNLDYEYLPISGYQPFIDEAVKIIYGNTVELENLVAVQTLSGTGAVSLGAKLLTRVFDAETTPIYLSDPTWPNHYGVVKAAGWKNICTYAYYDPKTVSLNFEGMKKDILAAPDGSVFILHQCAHNPTGVDPSQEQWNEIASLMLAKHHQVFFDSAYQGYASGSLDTDAYAARLFARRGIEVLLAQSFSKNMGLYSERAGTLSLLLKDKTKRADVKSVMDSLIREEYTCPPAHGARLAHLILSNNELRKEWEAELSAMAERIRTMRRTVYDELLRLQTPGSWEHVINQIGMFSFLGLSKAQCEYCQNHNIFITVSGRANMAGLTHETALMLAQTINDAVRNVNRE
modifications: Leishmania major
monatin transamination activity (in words) ([2]; oxaloacetate as the amino acceptor, 5 mM monatin, 25 μg aminotransferase, 30° C. 30 minutes): highest amount of activity
Specific Activity ([3]; cell extracts (CE)): >49.3 μg I3P/mg protein/min
Specific Activity ([3]; purified (P)): >4280 μg I3P/mg protein/min
tryptophan aminotransferase activity (in words) [3]: significant levels of tryptophan aminotransferase activity

B3: E. coli KHG: 4-hydroxy-2-oxoglutarate glyoxylate lyase (KHG aldolase) from E. coli (protein, UniProt P0A955 1-213, looked up)
KHG/KDPG aldolase: MKNWKTSAESILTTGPVVPVIVVKKLEHAVPMAKALVAGGVRVLEVTLRTECAVDAIRAIAKEVPEAIVGAGTVLNPQQLAEVTEAGAQFAISPGLTEPLLKAATEGTIPLIPGISTVSELMLGMDYGLKEFKFFPAEANGGVKALQAIAGPFSQVRFCPTGGISPANYRDYLALKSVLCIGGSWLVPADALEAGDYDRITKLAREAVEGAKL
monatin produced [4]: 3000 ng/mL

B4: S. meliloti tatA: Sinorhizobium meliloti tyrosine aminotransferase (tatA, SEQ ID NOS: 1 and 2) (protein, listed as Sinorhizobium meliloti)
chain: MFDALARQADDPLLFLIGLFRKDERPGKVDLGVGVYRDETGRTPIFRAVKAAEKRLLETQDSKAYIGPEGDLVFLDRLWELVGGDTIERSHVAGVQTPGGSGALRLAADLIARMGGRGIWLGLPSWPNHAPIFKAAGLDIATYDFFDIPSQSVIFDNLVSALEGAASGDAVLLHASCHNPTGGVLSEAQWMEIAALVAERGLLPLVDLAYQGFGRGLDQDVAGLRHLLGVVPEALVAVSCSKSFGLYRERAGAIFARTSSTASADRVRSNLAGLARTSYSMPPDHGAAVVRTILDDPELRRDWTEELETMRLRMTGLRRSLAEGLRTRWQSLGAVADQEGMFSMLPLSEAEVMRLRTEHGIYMPASGRINIAGLKTAEAAEIAGKFTSL
conversion of monatin to MP (in words) ([2]; similar assays, conditions tested): did not appear to detectably convert monatin to MP
Specific Activity ([3]; cell extracts (CE)): >28.6 μg I3P/mg protein/min
Specific Activity ([3]; purified (P)): >931 μg I3P/mg protein/min
tryptophan aminotransferase activity (in words) [3]: significant levels of tryptophan aminotransferase activity
